Molecular target: T1, Recombinant human TNFα (Homo sapiens, UniProt P01375)
T1 construct: human TNFα, residues 77-233 of GenBank AAA61198.1, behind an N-terminal signal peptide and 6x His tag; also called hTNFα; TFNα; source: Expi293, transient transfection, purified (Ni-NTA)
Experiment: ELISA; 100-200 ng/well antigen coated in PBS, sdAbs added in 3-fold serial dilutions, 1.5 h at 37 °C, detected with HRP anti-flag antibody
Settings: both partners purified

T1 sequence (P01375 77-233): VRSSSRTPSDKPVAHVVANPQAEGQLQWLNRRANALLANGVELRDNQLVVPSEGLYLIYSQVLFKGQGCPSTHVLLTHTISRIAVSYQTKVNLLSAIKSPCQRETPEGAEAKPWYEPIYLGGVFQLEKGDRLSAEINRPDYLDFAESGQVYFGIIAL

Row | Binder | binding result
1 | VHH3-M1 (VHH, redesigned variant of VHH3 (carries L90Q, IMGT numbering); Designed by TFDesign-sdAb; pComb3x with N-terminal OmpA signal peptide; also called VHH-M1; source: E. coli HB2151, purified (Ni-NTA or Protein A resin); also in lysis supernatant; not shown: FLAG, C-terminal, kept) VHH: QVQLQDSGGGLVQAGGSLRLSCAVSGRTFSAHSVYTMGWFRQAPGKEREFVARIYWSSANTYYADSVKGRFTISRDNAKNTVDLQMNSLRPEDTAVYYCAARDGIPTSRTVGSYNYWGQGTQVTVSS | binds
2 | VHH3-M3 (VHH, redesigned variant of VHH3 (carries L90Q; differs from VHH3-M1 only at position 88, IMGT numbering); Designed by TFDesign-sdAb; pComb3x with N-terminal OmpA signal peptide; also called VHH-M3; source: E. coli HB2151, purified (Ni-NTA or Protein A resin); also in lysis supernatant; not shown: FLAG, C-terminal, kept) VHH: QVQLQDSGGGLVQAGGSLRLSCAVSGRTFSAHSVYTMGWFRQAPGKEREFVARIYWSSANTYYADSVKGRFTISRDNAKNTVYLQMNSLRPEDTAVYYCAARDGIPTSRTVGSYNYWGQGTQVTVSS | binds

— paper PMC12572175, “A synergistic generative-ranking framework for tailored design of therapeutic single-domain antibodies” (Cell Discovery, 2025)
